Measurements reported in patent US9957295B2, “Peptides inhibiting cold-inducible RNA binding protein activity” (The Feinstein Institute for Medical Research, priority 2013, dated 2018).

Columns and labels:
THP-1 cells = test: TNF-α release from differentiated THP-1 cells stimulated with recombinant proteins; assay type: cell-based, human; details: 0.3 μg/ml each protein, 8 h, ELISA
Method: As with the murine model, the stimulation of TNF-α, release by rCIRP in a human model was studied. […] These experiments were conducted by incubating differentiated human THP-1 cells with rhCIRP or rmCIRP at the indicated concentrations for 4 h. *P<0.05 vs. no CIRP. Similarly, human PBMC were incubated with the indicated concentrations of rhCIRP for 8 h. *P<0.05 vs. no rhCIRP. Thus, stimulation of cytokine release by CIRP was not attributable to LPS contamination. Furthermore, CIRP-induced cytokine activation was conserved between rodents and humans.
rmCIRP induced TNF-α and HMGB1 release in macrophages (FIGS. 10a, b and c). It was reported that HMGB1 can also stimulate TNF-α release (Andersson, U., et al. High mobility group 1 protein (HMG-1) stimulates proinflammatory cytokine synthesis in human monocytes. J. Exp. Med. 192, 565-570 (2000)). The relationship between CIRP and HMGB1 on stimulating TNF-α release was analyzed by applying respective neutralizing antibodies. […] After 4 h, TNF-α levels in conditioned medium (CM) were assayed by ELISA. Data are mean±s.e.m. from three independent experiments. *P<0.05 vs. rmCIRP+ control IgG. In FIG. 16D, RAW 264.7 cells were pre-incubated with rabbit control IgG or anti-CIRP antibodies at indicated dilutions of 1 mg/ml for 20 min before adding 1.0 μg/ml rmCIRP. After 4 h, TNF-α levels in CM were assayed by ELISA. Data are mean±s.e.m. from three independent experiments. *P<0.05 vs. rmCIRP+ control IgG. THP-1 cells were incubated with 4 μg/ml of anti-CIRP antibodies, anti-HMGB1 antibodies, or non-immunized control IgG for 1 h prior to adding rmCIRP (0.3 μg/ml), rmHMGB1 (0.3 μg/ml), or rmCIRP/rmHMGB1 (0.3 μg/ml, 0.3 μg/ml) for 8 h. *P<0.05 vs. rmCIRP; #P<0.05 vs. rmHMGB1. […] Furthermore, rmCIRP, rmHMGB1, and rmCIRP plus rmHMGB1 induced TNF-α levels of 0.8, 0.6, and 1.6 ng/ml, respectively. […] TNF-α levels in all collected CM were assayed by ELISA. Data are mean±s.e.m. from three or four independent experiments.
Murine macrophage-like RAW 264.7 cells and human monocyte THP-1 cells were obtained from ATCC (Manassas, Va.). […]

healthy rats = test: Administration of recombinant CIRP to healthy rats; assay type: in vivo, rat
Method: As an index of the inflammatory cytokine cascade and the acute inflammatory response, supernatants from cells incubated with recombinant CIRP were measured for TNF-α and IL-6 levels in serum, tissue homogenates, and culture medium grown with macrophages using a commercially available enzyme-linked immunosorbent assay (ELISA) kits (BioSource International, Camarillo, Calif.) according to the manufacturer's instruction. To quantify TNF-α and IL-6 protein levels in serum and tissue, serum samples were harvested 4 h after hemorrhage, or 4 h after treatment with recombinant CIRP from animals by cardiac puncture at the time that the rats were sacrificed, and collected tissue samples, and carried out by the same method as above. HMGB1 levels were determined by Western blotting.
Serum concentrations of aspartate aminotransferase (AST), alanine aminotransferase (ALT), and lactate were determined by using assay kits according to the manufacturer's instructions (Pointe Scientific, Lincoln Park, Mich.).
Healthy rats were intravenously administered rmCIRP (1 mg/kg BW) or normal saline (vehicle). After the injection of rCIRP (1 mg/kg BW) or buffer solution (same volume), as control, serum levels of TNF-α increased markedly in the rCIRP group, about 5 fold higher than buffer (sham) group (FIG. 4A). […] RAW 264.7 cells were incubated with indicated concentrations of rmCIRP for 20 h. HMGB1 levels in conditioned medium (CM) were determined by Western blotting. Band intensities were quantified with densitometry. […] After 4 hours, blood and tissues were collected for analysis. […] Data are mean±s.e.m., n=6-9/group, *P<0.05 vs. vehicle.
In additional groups of normal healthy animals, rCIRP, for example rmCIRP (1 mg/kg BW) or buffer (same volume, 1 ml) were administered. At 4 h after the completion of treatment, blood samples were collected and placed on ice to allow clotting, and then were centrifuged at 1200 g for 10 min at 4° C., and the serum samples were stored at −80° C. until assayed. […]

B1: rmCIRP: recombinant murine (rat sequence) His-tagged CIRP expressed in E. coli (protein)
chain: MASDEGKLFVGGLSFDTNEQALEQVFSKYGQISEVVVVKDRETQRSRGFGFVTFENIDDAKDAMMAMNGKSVDGRQIRVDQAGKSSDNRSRGYRGGSAGGRGFFRGGRSRGRGFSRGGGDRGYGGGRFESRSGGYGGSRDYYASRSQGGSYGYRSSGGSYRDSYDSYATHNEHHHHHH
induced TNF-α levels (THP-1 cells): 0.8 ng/mL
serum TNF-α versus buffer (sham) group (healthy rats; 1 mg/kg BW): about 5 fold
serum TNF-α, IL-6, HMGB1 levels and organ injury markers AST and ALT (healthy rats; 1 mg/kg BW intravenous, 4 hours, vs normal saline): significantly increased
serum levels of AST and ALT (healthy rats; 1 mg/kg BW, normal healthy rats): significantly elevated
